Reference: patent publication US20090311278A1, “Novel teleost derived antimicrobial polypeptides” (THE UNIVERSITY OF GEORGIA RESEARCH FOUNDATION, published 2009)

T1: NCAMP-1 (histone H1X-like ODN binding protein), recombinant (Ictalurus punctatus)
T1 chain: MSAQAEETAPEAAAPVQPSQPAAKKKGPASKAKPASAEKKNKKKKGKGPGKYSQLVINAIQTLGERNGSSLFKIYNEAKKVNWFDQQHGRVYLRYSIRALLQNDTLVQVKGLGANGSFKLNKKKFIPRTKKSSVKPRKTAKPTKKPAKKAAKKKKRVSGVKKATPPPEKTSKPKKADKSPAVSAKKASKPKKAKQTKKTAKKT


Biological target: T1, NCAMP-1 (histone H1X-like ODN binding …)
Test: Southwestern blot
Settings: tags: C-terminal 6xHis (pET-21b, E. coli); label: biotin (3')
Description: Biotinylated ODNs were used to identify potential. DNA binding proteins in NCC membrane lysate preparations and to evaluate the ODN binding of recombinant NCAMP-1. Membrane lysates were prepared as indicated above. Purified recombinant NCAMP-1 was mixed with SDS-PAGE sample buffer (reducing) prior to electrophoresis. […] Membranes were blocked in Superblock (Pierce, Rockford Ill.) blocking solution with 0.05% Tween-20. ODN's were diluted in Superblock and added to membranes (1 h, room temperature). Membranes were washed (3×) in TBS with 0.5% Tween-20 (TBST). Neutraviden-HRP (Pierce) diluted in Superblock (minimum dilution 1:50000) was added and incubated for 30 min at room temperature. Blots were washed (3×) in TBST and were developed with enhanced chemiluminiscence (SuperSignal® West Pico Pierce, Rockford, Ill.).

Row | Binder | binding result
1 | TCGTCGTTGTCGTTGTCGTT (ssDNA) [CpG ODN] | binds
2 | TGCTGCTTGTGCTTGTGCTT (ssDNA) [GpC ODN] | binds
